Reference: patent US20260232732A1 (FUNDACI INSTITUT DE RECERCA CONTRA LA LEUC MIA JOSEP …, published 2026)
Where no end group is shown, it is not given here. The star is where a group is joined. Biotin = O=C1N[C@H]2[C@H](CS[C@H]2CCCCC(=O)*)N1

What was measured:
[1] = biological target: T1, Peptide 4, non-conjugated (SMEDYVNFNF-C) (human); experiment: ELISA; Ab 0.01563 ug/mL; repI
T1 construct: With the extra C-terminal Cys
T1 peptide: SMEDYVNFNFC
Protocol: (§1) In brief, plates with each non-conjugated peptide (50 μg/mL) or BSA-conjugated peptide (5 μg/mL) were coated in 0.58M carbonate-bicarbonate buffer pH9.5, 100 μL/well, at 4° C. […] After washing, wells were incubated with the 3, 3′,5,5′-Tetramethylbenzidine (TMB) HRP substrate and reactions were stopped with 2M HCl and OD450 was recorded.

[2] = biological target: T2, BSA (negative control coating) (bovine, UniProt P02769 25-607); experiment: ELISA; Ab 0.01563 ug/mL; repI
T2 construct: also called Negative control BSA
Protocol: as §1

[3] = biological target: T3, antigen peptide-BSA (immunisation peptide #1 MADDYGSESTSSMEDYVNFNF-C conjugated to BSA) (human, extra C-terminal Cys conjugated to BSA); experiment: ELISA; Ab 0.01563 ug/mL; repI
T3 construct: also called Positive control antigen peptide-BSA; MADDY peptide
T3 peptide: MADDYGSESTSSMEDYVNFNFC
Protocol: as §1

[4] = biological target: T4, Peptide 2, non-conjugated (GSESTSSMED-C) (human); experiment: ELISA; Ab 0.01563 ug/mL; repI
T4 construct: With the extra C-terminal Cys
T4 peptide: GSESTSSMEDC
Protocol: as §1

[5] = biological target: T5, Peptide 3-BSA (SSMEDYVNFN-C conjugated to BSA) (human); experiment: ELISA; Ab 0.01563 ug/mL; repI
T5 peptide: SSMEDYVNFNC(BSA)
Protocol: as §1

[6] = biological target: T1, Peptide 4, non-conjugated (SMEDYVNFNF-C); experiment: ELISA; Ab 0.25 ug/mL; repI
Protocol: as §1

[7] = biological target: T2, BSA (negative control coating); experiment: ELISA; Ab 0.25 ug/mL; repI
Protocol: as §1

[8] = biological target: T6, Peptide 1, non-conjugated (MADDYGSEST-C) (human); experiment: ELISA; Ab 0.25 ug/mL; repI
T6 construct: With the extra C-terminal Cys
T6 peptide: MADDYGSESTC
Protocol: as §1

[9] = biological target: T3, antigen peptide-BSA (immunisation …); experiment: ELISA; Ab 0.25 ug/mL; repI
Protocol: as §1

[10] = biological target: T7, Peptide 2-BSA (GSESTSSMED-C conjugated to BSA) (human); experiment: ELISA; Ab 0.25 ug/mL; repI
T7 peptide: GSESTSSMEDC(BSA)
Protocol: as §1

[11] = biological target: T8, Peptide 1-BSA (MADDYGSEST-C conjugated to BSA) (human); experiment: ELISA; Ab 0.25 ug/mL; repI
T8 peptide: MADDYGSESTC(BSA)
Protocol: as §1

[12] = biological target: T5, Peptide 3-BSA (SSMEDYVNFN-C conjugated …); experiment: ELISA; Ab 0.25 ug/mL; repI
Protocol: as §1

[13] = biological target: T9, Peptide 4-BSA (SMEDYVNFNF-C conjugated to BSA) (human); experiment: ELISA; Ab 0.25 ug/mL; repI
T9 peptide: SMEDYVNFNFC(BSA)
Protocol: as §1

[14] = biological target: T10, biotin-peptide MEDYVNFNFT (human); experiment: ELISA biotin-peptide; scFv 2.5 ug/mL; repII
T10 peptide: Biotin-MEDYVNFNFT
Protocol: (§2) The peptides were synthesized naked or with a N-terminal Biotin modification with a purity of >98%. All four scFvs were verified by ELISA that can be detected with anti-His antibodies. ELISA was performed for scFv-peptide binding validation. Briefly, naked peptides were coated (50 μg/mL) in 0.58M carbonate-bicarbonate buffer pH9.5, 100 μL/well, 4° C. O/N. Then after blocking (3% BSA-PBS, 300 μL/well 37° C. 1.5 h) and washing (PBS+Tween-20 0.05% v/v (0.05% PBST), wells were incubated with each purified scFv antibody at concentration of 1 μg/mL in PBS at 37° C. 1 h. After washing (0.05% PBST), wells were incubated with secondary antibodies (goat anti-His IgG-HRP) in PBS, 37° C., 30 min. After washing, and incubation with TMB substrate, reactions were stopped with 2M HCl and reading was quantified at OD450.
(§3) ELISA with biotin-conjugated peptides (5 μg/mL) was performed very similar to described above with minor modifications.
(§4) A full curve ELISA was performed for each positive scFv/biotin-peptide pair in order to confirm previous results. Tables 15-17 show ELISA results of the dose-dependent full curve for each positive peptide with scFv “CCR9_HUM”, “Comp-2” and “Comp-3”, respectively.

[15] = biological target: T11, biotin-peptide TSSMEDYVNF (human); experiment: ELISA biotin-peptide; scFv 2.5 ug/mL; repII
T11 peptide: Biotin-TSSMEDYVNF
Protocol: as §2, §3, §4

[16] = biological target: T12, biotin-peptide SSMEDYVNFN (human); experiment: ELISA biotin-peptide; scFv 2.5 ug/mL; repII
T12 peptide: Biotin-SSMEDYVNFN
Protocol: as §2, §3, §4

[17] = biological target: T13, biotin-peptide SMEDYVNFNF (human); experiment: ELISA biotin-peptide; scFv 2.5 ug/mL; repII
T13 peptide: Biotin-SMEDYVNFNF
Protocol: as §2, §3, §4

[18] = biological target: T10, biotin-peptide MEDYVNFNFT; experiment: ELISA biotin-peptide; scFv 1.25 ug/mL; repI
Protocol: as §2, §3, §4

[19] = biological target: T11, biotin-peptide TSSMEDYVNF; experiment: ELISA biotin-peptide; scFv 1.25 ug/mL; repI
Protocol: as §2, §3, §4

[20] = biological target: T12, biotin-peptide SSMEDYVNFN; experiment: ELISA biotin-peptide; scFv 1.25 ug/mL; repI
Protocol: as §2, §3, §4

[21] = biological target: T13, biotin-peptide SMEDYVNFNF; experiment: ELISA biotin-peptide; scFv 1.25 ug/mL; repI
Protocol: as §2, §3, §4

[22] = biological target: T10, biotin-peptide MEDYVNFNFT; experiment: ELISA biotin-peptide; scFv 0.625 ug/mL; repII
Protocol: as §2, §3, §4

[23] = biological target: T11, biotin-peptide TSSMEDYVNF; experiment: ELISA biotin-peptide; scFv 0.625 ug/mL; repII
Protocol: as §2, §3, §4

[24] = biological target: T12, biotin-peptide SSMEDYVNFN; experiment: ELISA biotin-peptide; scFv 0.625 ug/mL; repII
Protocol: as §2, §3, §4

[25] = biological target: T13, biotin-peptide SMEDYVNFNF; experiment: ELISA biotin-peptide; scFv 0.625 ug/mL; repII
Protocol: as §2, §3, §4

T2 sequence (P02769 25-607 limits assumed): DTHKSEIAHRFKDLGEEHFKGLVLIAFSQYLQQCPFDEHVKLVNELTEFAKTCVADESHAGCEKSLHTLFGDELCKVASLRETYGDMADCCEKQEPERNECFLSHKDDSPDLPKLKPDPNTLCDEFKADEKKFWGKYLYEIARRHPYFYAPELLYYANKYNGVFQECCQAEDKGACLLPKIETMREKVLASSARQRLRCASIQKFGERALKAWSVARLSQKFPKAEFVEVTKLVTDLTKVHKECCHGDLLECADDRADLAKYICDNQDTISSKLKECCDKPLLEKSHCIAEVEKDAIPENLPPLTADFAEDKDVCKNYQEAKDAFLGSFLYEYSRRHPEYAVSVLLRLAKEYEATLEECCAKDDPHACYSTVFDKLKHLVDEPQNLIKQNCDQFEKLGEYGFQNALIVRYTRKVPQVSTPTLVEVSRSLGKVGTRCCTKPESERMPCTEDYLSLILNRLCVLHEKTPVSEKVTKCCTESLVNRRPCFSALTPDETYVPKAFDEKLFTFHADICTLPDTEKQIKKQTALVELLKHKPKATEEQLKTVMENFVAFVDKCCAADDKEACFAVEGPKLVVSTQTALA

B1: anti-CCR9 antibody clone 115 (murine, from hybridoma #115) (antibody, V domains shown)
VH: QVQLKQSGPELVKPGTSVRVSCTASGYSFTDYIIYWVKQSHGRSLEWIGYIDPNNYNTRYSQKFKGKATLTVDKSSTSAFMHLNSLTSDDSAVYYCARDVYWGQGTTLTVSS
VL: DVVMTQTPLSLTVSLGDQASISCRSSQSLVHSNGKTYLQWYLQKPGQSPKLLIYKVSNRFSGVPDRFSGSGSGTDFTLKISRVEAEDLGVYFCAQSTHVWTFGGGTKLEIKR
notes: Mouse IgG1
OD450 [1]: 0.38 OD
OD450 [2]: 0.01 OD
OD450 [3]: 1.1 OD
OD450 [4]: 0.01 OD
OD450 [5]: 1.33 OD
OD450 [6]: 2.09 OD
OD450 [7]: 0.01 OD
OD450 [8]: 0.02 OD
OD450 [9]: 2.29 OD
OD450 [10]: 0.02 OD
OD450 [11]: 0.02 OD
OD450 [12]: 1.95 OD
OD450 [13]: 2.46 OD

B2: CCR9_HUM2 scFv (humanized anti-CCR9 scFv, SEQ ID NO: 17 with C-terminal 6xHis tag) (scFv)
scFv: QVQLVQSGAEVKKPGASVKVSCTASGYSFTDYIIYWVKQAHGQSLEWMGYIDPNNYNTRYSQKFQGKVTITVDKSSTSAYMELNSLTSDDTAVYYCARDVYWGQGTTVTVSSGGGGSGGGGSGGGGSGGGGSDVVMTQTPLSLSVTPGQPASISCRSSQSLVHSNGKTYLQWYLQKPGQSPKLLIYKVSNRFSGVPDRFSGSGSGTDFTLKISRVEAEDVGVYFCAQSTHVWTFGGGTKVEIKRAHHHHHH
OD450 [14]: 1.64 OD
OD450 [15]: 1.4 OD
OD450 [16]: 1.78 OD
OD450 [17]: 1.77 OD
OD450 [18]: 1.54 OD
OD450 [19]: 1.18 OD
OD450 [20]: 1.74 OD
OD450 [21]: 1.73 OD
OD450 [22]: 1.46 OD
OD450 [23]: 0.67 OD
OD450 [24]: 1.74 OD
OD450 [25]: 1.67 OD
